In paper PMC10062032 (ACS Nano, 2023):

Target: T1, Methylococcus capsulatus (Bath) soluble methane monooxygenase hydroxylase (sMMOH), alpha subunit (Methylococcus capsulatus (Bath), UniProt P22869 1-527)
T1 sequence (looked up): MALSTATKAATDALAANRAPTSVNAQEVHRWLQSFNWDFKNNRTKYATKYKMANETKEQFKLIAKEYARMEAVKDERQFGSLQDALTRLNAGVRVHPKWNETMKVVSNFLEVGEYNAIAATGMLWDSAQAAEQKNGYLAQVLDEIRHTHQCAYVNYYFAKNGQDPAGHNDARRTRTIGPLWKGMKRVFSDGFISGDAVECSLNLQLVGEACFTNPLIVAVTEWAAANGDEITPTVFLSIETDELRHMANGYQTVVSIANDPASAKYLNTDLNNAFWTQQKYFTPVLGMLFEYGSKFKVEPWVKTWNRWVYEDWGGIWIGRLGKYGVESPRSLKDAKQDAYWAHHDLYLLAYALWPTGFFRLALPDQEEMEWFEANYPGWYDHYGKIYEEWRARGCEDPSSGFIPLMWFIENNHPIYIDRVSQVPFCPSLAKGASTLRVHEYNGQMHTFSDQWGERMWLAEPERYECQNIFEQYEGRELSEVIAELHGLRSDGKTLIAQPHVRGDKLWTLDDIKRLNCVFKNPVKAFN
Assay: cryo-EM structure

binding result: binds
B1: Methylococcus capsulatus (Bath) soluble methane monooxygenase hydroxylase (sMMOH), beta subunit (natural protein, UniProt P18798 1-389, looked up)
chain: MSMLGERRRGLTDPEMAAVILKALPEAPLDGNNKMGYFVTPRWKRLTEYEALTVYAQPNADWIAGGLDWGDWTQKFHGGRPSWGNETTELRTVDWFKHRDPLRRWHAPYVKDKAEEWRYTDRFLQGYSADGQIRAMNPTWRDEFINRYWGAFLFNEYGLFNAHSQGAREALSDVTRVSLAFWGFDKIDIAQMIQLERGFLAKIVPGFDESTAVPKAEWTNGEVYKSARLAVEGLWQEVFDWNESAFSVHAVYDALFGQFVRREFFQRLAPRFGDNLTPFFINQAQTYFQIAKQGVQDLYYNCLGDDPEFSDYNRTVMRNWTGKWLEPTIAALRDFMGLFAKLPAGTTDKEEITASLYRVVDDWIEDYASRIDFKADRDQIVKAVLAGLK
